Reference: paper PMC7156267, “Cryo-EM structures of S-OPA1 reveal its interactions with membrane and changes upon nucleotide binding” (eLife, 2020)

Target: the molecule itself
Assay: SEC; Superdex 200 10/300 GL, column pre-calibrated with molecular weight markers; 20 mM Tris-HCl pH 8.0, 150 mM NaCl, 1 mM DTT; self-association in solution

B1: S-OPA1 (short S1 isoform of human OPA1, splice form 1), wild type (natural protein, UniProt O60313 196-960, looked up)
chain: TDRGSESDKHFRKVSDKEKIDQLQEELLHTQLKYQRILERLEKENKELRKLVLQKDDKGIHHRKLKKSLIDMYSEVLDVLSDYDASYNTQDHLPRVVVVGDQSAGKTSVLEMIAQARIFPRGSGEMMTRSPVKVTLSEGPHHVALFKDSSREFDLTKEEDLAALRHEIELRMRKNVKEGCTVSPETISLNVKGPGLQRMVLVDLPGVINTVTSGMAPDTKETIFSISKAYMQNPNAIILCIQDGSVDAERSIVTDLVSQMDPHGRRTIFVLTKVDLAEKNVASPSRIQQIIEGKLFPMKALGYFAVVTGKGNSSESIEAIREYEEEFFQNSKLLKTSMLKAHQVTTRNLSLAVSDCFWKMVRESVEQQADSFKATRFNLETEWKNNYPRLRELDRNELFEKAKNEILDEVISLSQVTPKHWEEILQQSLWERVSTHVIENIYLPAAQTMNSGTFNTTVDIKLKQWTDKQLPNKAVEVAWETLQEEFSRFMTEPKGKEHDDIFDKLKEAVKEESIKRHKWNDFAEDSLRVIQHNALEDRSISDKQQWDAAIYFMEEALQARLKDTENAIENMVGPDWKKRWLYWKNRTQEQCVHNETKNELEKMLKCNEEHPAYLASDEITTVRKNLESRGVEVDPSLIKDTWHQVYRRHFLKTALNHCNLCRRGFYYYQRHFVDSELECNDVVLFWRIQRMLAITANTLRQQLTNTEVRRLEKNVKEVLEDFAEDGEKKIKLLTGKRVQLAEDLKKVREIQEKLDAFIEALHQEK
notes: Optic atrophy 1 (OPA1), human, splice form 1 (isoform 1); Dimer in solution by gel filtration, BS3 cross-linking and SEC-MALS; The first residue is worked out from the S1 site (195th residue) and the name of the deletion Δ196-252; also called WT; full-length S-OPA1; source: E. coli Transetta (DE3), purified (Ni-NTA, PreScission cleavage, Superdex 200 gel filtration); not shown: Trx, N-terminal, …
- stoichiometry N: 2
